In publication PMC4219626 (Nature structural & molecular biology, 2014):

B1: Rrn6 (recombinant, His6-tagged) (natural protein, S. cerevisiae, UniProt P32786 1-894, looked up)
chain: MSEGQIPSSDVLGSQLGVGVQGASLYCPQENYTTKKQEKPQWLRPVDDTLAEDALDLHIVVKSLLCDTAIRYISDDKVLQESDADDDLITSDIDEDTDNQGDTSIVVNPVIPVVPKDVHFFKKVDVGNDSMFGVNCDTPVSFQDYIPSDLLRNLDDTLQESTNSSRPMQDAFFWDPTVANRLDSQYIQTASDLRNYRDGTEIIAYASGKTGSVLNIAVLTRQNTLHLNRHNNVTSIELHSPIKSIKIPGASESIGRRSNLVGIITENSFQIFRIESVHSRSCDVMVSSSEPLYFVEIDDLQVVDFAFNPWDLQQFAIIDIKGNWSIGRIPKNFNNNNKRKLQLIDNLHGTIFDPEELSSWKRIEWFSHFQKILVFDRSKMIEIDFMNNWQTEVVQAKAWSNIRDYKRIDDKNGILLTSREIIIVGASESNDPVRRISWKHDLDPDDTTLRITVQKVKKPDHILLVAFVYSMRHKRIYMHVFSHRKANLFQSLGCSTVLEIPGGTPTGIETILTLDHIDDESRREEDADENFELVVDFLVKLRNSSEVYYYALSNTQNSEPNKQETPIIVDHPEWASLFNNADEREKESIGALVSQIKLKERERISRVQNLIEHENSHDEDKYLQDLGYRLSIATNELLESWQKTKDESILSGSLSHSKLKNLLENSDSFASIPEFSSLLDQFFQYYQDQDVTFIGFEKLLHLFLHEDVPGLDIFYNKLLQCWVLVSPQAELLTKEIVKDIIWSLARLEKPSLFEPIQNEISRSLSGPYQDIISSWDMDDINEEDESNEFNFDSQFSAPFNGRPPFNLNSQSQIPTIKSSQSSGLARRKRILKTQSQKATPLSQSTQNLSVLPDSMTPAFTLMQPPSSQISFVNDSQPRNSQKAKKKKKRIRGFG
B2: Rrn11 (recombinant) (natural protein, S. cerevisiae, UniProt Q04712 1-507, looked up)
chain: MFEVPITLTNRKFAQRRKLKYQYINYISRRFDRISKKSTTTDSLPTPENSAAENNDEEEGQNSEAGTYRRSVLQQKKRRRERHWRSVVGEIYSTTESETDSQEEETEEGGEHDTGIDKEDSDEERKFWKKYEKPEKSFEIWRTVSSQNKQPINKQKMTYHNFKKIEKIPLRKMEIPLLHCTKENKLYFQSISRGLEPLKTSTSEVRNYRTRHIVTLTDLLHLNVSRHNWSLAYKIFATLIRIPGVQIKSLWGIGVEILDNLSNSSSGLDFLQWMCQIYSSKSRFVQNINYRSIVPPFQTGSRTHTAKFAITYLWSSLINCQKSMEPSSNIIDKPFDTENDLLQELIDKISEWVLTPPFMEDAEVWFIYASCHLLKADTLSRQFVNDNKNNDLIGLDRDIKINQVIKHIHYVRTFLKICLDKGGFAVPSRLIENQLKSFESRLYGEAQDIQERDVANVYDSIDNSSVENSFGDVYETNAEFLDTQLMDLSPEDNGLDEMHYSDEDSSE
B3: TATA binding protein (TBP) (natural protein, S. cerevisiae, UniProt P13393 1-240, looked up)
chain: MADEERLKEFKEANKIVFDPNTRQVWENQNRDGTKPATTFQSEEDIKRAAPESEKDTSATSGIVPTLQNIVATVTLGCRLDLKTVALHARNAEYNPKRFAAVIMRIREPKTTALIFASGKMVVTGAKSEDDSKLASRKYARIIQKIGFAAKFTDFKIQNIVGSCDVKFPIRLEGLAFSHGTFSSYEPELFPGLIYRMVKPKIVLLIFVSGKIVLTGAKQREEIYQAFEAIYPVLSEFRKM
B4: Rrn7 (recombinant, His6-tagged) (natural protein, S. cerevisiae, UniProt P40992 1-514, looked up)
chain: MSTFIRGPICGTDNCPSRLWRIIDGRRTCQYGHVMEGDVEFNDDEDDLNGLGAGVITRRLNLTTNATGSFQSSQLTNSQLLQQQQRQSHKKFKKLIGHEAKLLFLKSFQFILKRQIRWLITEMRFPKEFEHVAKIIWLKILKTINDQPQEELKLQLHMTSTISILYLASTHLSLPVYTCDYIKWICTAKMPYFQASEILPKSWRIQLPNYYVSILEGSISPFNGQLYNKIALTCGMIHFKEFFNSEISCQGLLLKLVMQCALPPEFYFYTKQVIEFEETDIRNLTLWERTDERHTGRVSNHAELRVLSYFMLTINWMLSFDRDRQYPLKWILSLTESLTQRTTTSESIGRNIVKVVYPDKPTSSDYFQWSEEETLEFLKWMEKQFLPTQTKSLHNENGSMEMTIDQKIARRKLYKIFPLDREANHDGEFNDSTHQLTFIEDLQERYAKQTPFFESNKIRDSLNYQEANPPARKEAIGRLLTHIASQLLVDFAISKEQLKDCISRIKNACLHRMN

Key:
[1] = target: B4; assay: cross-linking
[2] = target: B1; assay: cross-linking
[3] = target: B4; assay: cross-linking; remark: listed apart in the source
[4] = target: B1; assay: cross-linking; remark: listed apart in the source
Rrn11 (recombinant) = target: B2; assay: cross-linking
[5] = target: B1; assay: co-purification

B1
stoichiometry N [1]: 1

B2
stoichiometry N [1]: 1
stoichiometry N [2]: 1

B3
binding result [3]: binds
binding result [4]: binds
binding result (Rrn11 (recombinant)): binds

B4
binding result [5]: binds
